Reference: US20210147573A1 (DENALI THERAPEUTICS, published 2021)

Assays:
[1] = target: HA-Rab10 (N-terminal HA-tagged Rab10 overexpressed in HEK293T cells; not phosphorylated / LRRK2 inhibitor A-treated lysate) (UniProt P61026)
[2] = target: mouse Rab10 (endogenous, brain and kidney) (UniProt P61027)
[3] = target: mouse Rab10 (endogenous, brain and kidney) (mouse) (UniProt P61027); test: cell-based or functional assay
[4] = target: T1, endogenously expressed human Rab10 protein (total Rab10, A549 cell lysates) (human, UniProt P61026 1-200); test: sandwich ELISA with lysates of wild-type A549 cells, Rab10 KO A549 lysates as negative controls
T1 construct: A549 is stated to be a human lung epithelial cell line
T1 sequence: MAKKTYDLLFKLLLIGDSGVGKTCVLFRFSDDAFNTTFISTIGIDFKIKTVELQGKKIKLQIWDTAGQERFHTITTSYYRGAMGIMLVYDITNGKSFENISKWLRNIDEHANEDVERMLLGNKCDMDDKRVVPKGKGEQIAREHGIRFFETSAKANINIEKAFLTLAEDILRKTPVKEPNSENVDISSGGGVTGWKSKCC

[5] = target: T2, HA-Rab10 (N-terminal HA-tagged Rab10 overexpressed in HEK293T cells); not phosphorylated / LRRK2 inhibitor … (UniProt P61026 1-200); test: sandwich ELISA with cell lysates; same screening and selection strategy used for subclone supernatants
T2 construct: mature; also called overexpressed Rab10 protein; not shown: N-terminal HA (hemagglutinin) tag
T2 sequence (looked up): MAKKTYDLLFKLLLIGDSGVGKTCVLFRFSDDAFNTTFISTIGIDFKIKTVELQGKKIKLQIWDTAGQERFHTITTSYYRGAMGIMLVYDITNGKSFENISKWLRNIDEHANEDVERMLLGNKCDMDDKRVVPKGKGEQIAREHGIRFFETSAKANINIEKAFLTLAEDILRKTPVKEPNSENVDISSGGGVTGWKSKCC

[6] = target: T3, recombinant Rab10 protein (Abnova, H00010890-P01) (UniProt P61026 1-200); test: sandwich ELISA with recombinant Rab proteins; same screening and selection strategy used for subclone supernatants
T3 construct: Bought
T3 sequence (looked up): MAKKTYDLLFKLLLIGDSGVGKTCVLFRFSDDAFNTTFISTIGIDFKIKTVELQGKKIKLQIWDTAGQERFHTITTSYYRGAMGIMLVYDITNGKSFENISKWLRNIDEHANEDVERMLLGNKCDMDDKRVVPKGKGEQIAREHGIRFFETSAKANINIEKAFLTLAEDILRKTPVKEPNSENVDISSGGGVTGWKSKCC

[7] = target: T4, HA-Rab8a phosphorylated at T72 (overexpressed with LRRK2 in HEK293T cells, DMSO-treated lysate) (UniProt P61006 1-204, phosphothreonine at Thr72 (numbered with reference to SEQ ID NO:124)); test: sandwich ELISA screening assay; OD ratio of DMSO lysate to LRRK2 inhibitor A lysate
T4 construct: mature; In cell lysate of HEK293T co-transfected with FLAG-LRRK2 or FLAG-LRRK2-R1441C; also called pT72-Rab8a; phospho-Rab8a; not shown: N-terminal HA (hemagglutinin) tag
T4 sequence (looked up): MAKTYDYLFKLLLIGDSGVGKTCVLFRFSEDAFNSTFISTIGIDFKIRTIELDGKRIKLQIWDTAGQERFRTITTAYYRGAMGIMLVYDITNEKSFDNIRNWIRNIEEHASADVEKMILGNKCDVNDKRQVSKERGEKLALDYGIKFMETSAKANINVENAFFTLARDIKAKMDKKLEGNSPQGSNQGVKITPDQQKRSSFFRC
Protocol: (§1) 96-well ELISA plates were coated with 10 μg/ml anti-rabbit IgG (Millipore) overnight at 4° C. Plates were washed with TBST (Tris Buffered Saline with Tween 20), and blocked with 2% BSA. Hybridoma supernatants were added in different dilutions, and incubated at room temperature for 2 hours. After TBST wash, cell lysates were then added at different protein concentration (0.08 mg/ml or 0.8 mg/ml). […] HRP conjugated anti-HA antibody (1:5000, CST #2999) was used for detection. TMB substrate was added and developed. Absorbance (OD) was measured at 650 nm using a plate reader.

[8] = target: T5, HA-Rab8a (N-terminal HA-tagged full-length Rab8a overexpressed in HEK293T cells); not phosphorylated / LRRK2 … (UniProt P61006 1-204)
T5 construct: mature; also called overexpressed Rab8a protein; not shown: N-terminal HA (hemagglutinin) tag
T5 sequence (looked up): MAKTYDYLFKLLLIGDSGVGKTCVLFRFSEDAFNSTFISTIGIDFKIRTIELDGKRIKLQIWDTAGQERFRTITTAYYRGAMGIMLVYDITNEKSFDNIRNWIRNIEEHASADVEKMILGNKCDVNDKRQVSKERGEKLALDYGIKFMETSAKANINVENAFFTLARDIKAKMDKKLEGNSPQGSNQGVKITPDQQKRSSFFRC
Protocol: as §1

[9] = target: endogenous phosphorylated human Rab8a protein (pT72-Rab8a) (human) (UniProt P61006); test: western blot, human PBMC; band intensity normalized to actin; mean ± SEM
[10] = target: T4, HA-Rab8a phosphorylated at T72 …

“LRRK2 variant G2019S (HEK293T expression)” was tested, and the “phosphorylation of Rab10 (pT73-Rab10 western blot signal normalized to total Rab10, against wild-type LRRK2)” value [1] was “demonstrated significantly increased phosphorylation levels of Rab10”.

In the case of “mouse LRRK2 (endogenous; absent in LRRK2 knockout mice, Jackson Lab #016121)”, the “reduction of pRab10 level in LRRK2 KO mouse kidney (western blot, normalized to actin)” value [2] is reported as “more than 90% reduction of pRab10 level” and the “reduction of pT73-Rab10 level in LRRK2 KO mouse brain (western blot, normalized to actin)” value [2] is reported as 30-40% reduction for pT73-Rab10 level.

For LRRK2 variant R1441G, the “phosphorylation of Rab10 (pT73-Rab10 western blot signal normalized to total Rab10, against wild-type LRRK2)” value [1] was “demonstrated significantly increased phosphorylation levels of Rab10”.

For “G2019S-LRRK2 (BAC transgene in G2019S-Tg mice, Jackson Laboratories #018785)”, the increase in pT73-Rab10 level in brain and kidney of G2019S transgenic mice (western blot, normalized to actin) [3] was 20 to 30%.

For LRRK2 variant Y1699C, the “phosphorylation of Rab10 (pT73-Rab10 western blot signal normalized to total Rab10, against wild-type LRRK2)” value [1] was “demonstrated significantly increased phosphorylation levels of Rab10”.

LRRK2 variant I2020T was tested, and the “phosphorylation of Rab10 (pT73-Rab10 western blot signal normalized to total Rab10, against wild-type LRRK2)” value [1] was “demonstrated significantly increased phosphorylation levels of Rab10”.

With LRRK2 variant G2385R the “phosphorylation of Rab10 (pT73-Rab10 western blot signal normalized to total Rab10, against wild-type LRRK2)” value [1] was “demonstrated significantly increased phosphorylation levels of Rab10”.

B1: anti-total Rab10 monoclonal antibody Clone 10-3 (antibody, V domains shown)
VH: QSVEESGGRLVTPGTPLTLTCTASGFSLSSYYMNWVRQAPGKGLEWIGFISSGGRTYYANWAKGRFTISKTSTTVDLKITSPTTEDMATYFCARAIYSSGNSAMAIWGPGTLVTVSL
VL: AQVLTQTPSSVSAAVGGTVTISCQASQSVYDNSNLAWYQQKPGQPPELLIYYTSTLASGVPSRFSGSGSGTQFTLTISGVQCDDAAIYYCLGAFTCSSGDCNVFGGGTEVVVK
notes: Rabbit monoclonal from rabbit E8473 (Peptide A immunization); hybridoma supernatant; also called anti-total Rab10 clone 10-3
B1: binds [4]; binds [5]; binds [6].

B2: anti-pT72-Rab8a monoclonal antibody clone 24-3 (antibody, V domains shown)
VH: QSVEESGGRLVTPGTPLTLTCTVSGFSLSSYYITWVRQAPGKGREWLGIMNAGTTVHYANWVKGRFAISKTSTTVDLKITSPTTEDTATYFCARARNSVWMDIWGPGTLVTVSL
VL: AAVLTQTPSPVSGAVGGSVTVNCQSDKSVYRDNLAWYQQKPGQPPKLLIYKASTLASGVPSRFRGSGAGTQFTLTISDVQCDDAATYFCAGGYSSDSDTAFGGGTEVVVK
notes: Rabbit monoclonal; also called anti-phospho Rab8a clone 24-3
In the case of B2, the “Ratio (DMSO/LRRK2 inhibitor A)” value [7] is reported as 5.19 and the “OD A650 (LRRK2 inhibitor A)” value [8] is reported as 0.286 OD A650.

B3: anti-pT72-Rab8a monoclonal antibody clone 20 (antibody, V domains shown)
VH: QSVEESGGRLVTPGTPLTLTCTVSGFSLSSYAMGWVRQAPGEGLEYFGIINTGGSAYYTNWAKGRFTISRTSTTVHLKITSPTTEDTATYFCARIAGDTRYYGMDPWGPGTLVTVSS
VL: AAVLTQTPSPVSAAVGGTVSISCQSSKSVRNNNYLAWYQQKPGQPPKLLIYGASTLASGVPSRFKGSGSGTQFTLTISDVQCDDAATYYCAGGYDGGSDDAFGGGTEVVVK
notes: Rabbit monoclonal; also called anti-phospho Rab8a clone 20; anti-phosphorylated T72-Rab8a monoclonal antibody (clone 20)
B3 was tested, and the Ratio of DMSO/LRRK2 inhibitor A [9] was 3.5, the Ratio (DMSO/LRRK2 inhibitor A) [7] was 8.35 and the OD A650 (DMSO) [10] was 0.827 OD A650. The “OD A650 (LRRK2 inhibitor A)” value [8] was 0.099 OD A650.

B4: anti-pT72-Rab8a monoclonal antibody clone 170-1 (antibody, V domains shown)
VH: QSLEESGGDLVKPEGSPTLTCTASGFSFSSSYWICWVRQAPGKGLEWIACIYGGSSGTIYYASWAKGRFTISKTSSTTVTLQMTSLTAADTATYFCARRAAGGYGGRLDLWGQGTLVTVSS
VL: AQVMTQTPASVSAAVGGTVTINCQSSESVLNNNYLAWYQQKSGQPPKLLIWTASSLASGVPSRFSGSGSGTQFTLTISDVQCDDAATYYCAGGYYIGSDIFAFGGGTEVVVR
notes: Rabbit monoclonal; also called anti-phospho Rab8a clone 170-1
With B4 the “Ratio (DMSO/LRRK2 inhibitor A)” value [7] was 6.03 and the “OD A650 (LRRK2 inhibitor A)” value [8] was 0.173 OD A650.
